Assay: soluble on expression in E. coli; label from the status in PepcDB or PDB records

Soluble on expression in E. coli, not soluble:
MGSDKIHHHHHHMFEKQFNHRTLETSLGPVEIEGPVTSQILATYKLDPGLTAFRQPAEQHEALVEIAALEEGRIIIARQGNDIIGYVTFLYPDPYETWSEGNNPYILELGAIEVAARFRGQQIGKKLLEVSMLDPAMEHYLILTTEYYWHWDLKGSGLSVWDYRKIMEKMMNHGGLVFFPTDDPEIASHPANCLMARIGKHVAPEVVAHFDALRLRRRFMYD
MGSDKIHHHHHHMFFEGVEQLIEEILKLRKQGLSFRKIAQALNTTVGKVHYRYKKHEELQHQKGQAKPAAKGEWQLPGSYPVTEITLLPQGPTTLYAFWDTSEQTRGLVSYQTDKDWEQLEKRLRLYDVTSLLFDGRRANRYVDIHLPEMTNNWLIEHVEPNCTYLIDLGVITPSGAFLPVVRSTPIETPRQRNDQYNFRKEDVLDWQYGLSEEPKWLEHFSTYSYYEKTK
MGSDKIHHHHHHMFFEIALIGTTASGKTYIANTLAREFNAVVLSLDSLCVYKEINIASAKPSQDDLASIKYFGVNLLSVNEHFNVELFIREYQKAKEFALARNLPLIIVGGTGFYLKTMIDGLSEKTLESKSSLNNDEIYALLLNIDPNYKIEKNDTYRLKKWLGIYEQTREIPSEFLKRTQKTGVLKDIEIYELAWDKEILKKRIKTRTKEMLDNGLLDEAKILFSKFDHKLKALNSIGLKECKEYLDGEISFKELENLITIHTTQLAKRQRTFNKKFQSKALEFDKALATLRMKFSIEK
MGSDKIHHHHHHMFFYNIHQPMKTLIENLTSDLLPNQIFQTGFSFLIILKGNSLLKLDSNVLIFIMSGTMKVSSAQQELATVRERHIFFWDKEDDYTCEMLSDSQVILFAFGDLIVHDLLTFRPFGAISDSSVSKDVGLKFAEPLNSFLQLLAQYMEMNLYDLSLYIAKQRELFYILNSVYNEQELAILFSSLTEQSSRFKEQILENYLSAKNVGELASLLGYGVTNFRAKFKEQFGVSVYRWLLNRKSQHIIYRITVYGDEFSQIIDDFGFSSPSHFNKFCRSQYGLTPCELRKKLKTNNNS
MGSDKIHHHHHHMFKKIVLHGWRQFRNVDIDFHPRLTVLTGANGAGKTTLLNLVSRHFGWDGSFISTPVPRRSNPSLMYSTDFWDIDDIQVDIIHSFEREQNRKKQAAAQGSQTTIGKIIYGDGTETLITVPNSEVGSRYDVSIPARQRIDGLHIPSHRAPSTYQQVQNIPTIPRRRQEVFNQYLSLVQSRYLGSYTQWSPQYYMKETLISLATFGYGNAVVDADPESARLFEGFQEILRKMLPPKLRFKRLQIRVPEVILETETGNFSIDALSGGAAAVIDLAWQVFMYEPSESEFVVTLDEPENHLHPELQQRVLADLLTAFPSVQFVVATHSPFIVGSVPHSHVYVLGYDDSRRVNSTLLDTVNKTGTANEILRDVLGLEFTIPVWVENRLENLIEKYSKKDFTEDNLMMLRQEMTSLGLGKHVPQTISMLAQKKDGQ
MGSDKIHHHHHHMFLILLEVIVTSCPLLSSSFARLNPIPLDDAVIRTFMFIILHCKDKSIANPGAIIYKPFYPKFRVMERNELVNFVEGILKRIGFRTMKLEFRGGCFDLVATRQLLLLFIKALANIDKFSEEQAEDLKKLAKLFKASPLLVGLRSKNAELEDGVVYERFGIYAITPGTLYSMFAEGEPPLIIAERGGFYVRIDGKKLKALREEHGYSITELAGILGISRKSLQRYEKGESVVSLEVALRLEEVFDEPLVKPIDVLRARLKDVTLTSEPDNILEKEVFEKLRKLGMSVVKIKTAPFNAITKEEEDDIELLTGIDERKTGRTLKRAELVSQMAEVVGSDGVFVVKKARMEVVRNVPILPKKLLEEIKDADELLELIRDLKFKS
MGSDKIHHHHHHMFMERQDRYYQTYLNILKEELVAAMGCTEPIAIAYGAAKAREVLGAVPHKVVLEVSSNIIKNVKSVVVPNTDGLKGIEAATAAGIIAGRSDKILEVIAEVCQAEKQQIKTYLSETDIEVKLADSQIIFDIMITMFHQDSYVKLRIADYHTHIVHIEKNGEIIFGTGDLDAGISSLTDRKLLSVSKIIEFADSVRIEDVKELLDKQIEYNSAIARAGMEGNYGANVGRVLLKTYGNDVKIRAKAMAAAGSDARMSGCELPVIINSGSGNQGMTASLPVIEYAAELQSGEEKLYRALVVSNLITLHLKTGIGRLSAFCGVICAGCGSGAGIAYLHGGGYDEIAHTIVNAAAIVSGIVCDGAKPSCAGKIAAAVDAGILGYLMYKEGQQFRGGDGIVAKGIENTIANIGYLGKVGMKETDKEIINIMLNQCSS
MGSDKIHHHHHHMFTGTFTLRSRKSRHDHSSGNVRVCENEDMFESVGTWWRNLTHRHGDDRNNDDTLDDATNTLLSILPLASIVVDEHDEVIRAHPDAYALGVVRDDAIADDTVASAVHEVRAHGGKKQFSLTTTTLHEPKKAPKAGKPTMREVAKQALIGQSPDKPVTTVSRPNWLKVIVGRLNERFVVVLVSDVSETVRFSQIRDSFITNVSEQLLKPTQSLEELADALEHDSDNKAAIEGNTVKLRQSCARMEHMVSDLLLLIKAQEPILPTASNRINVMEQVKTVVDAHRDMAQRRGIDIEIDGDESLDINGEGEQIQAAVAKLLENAIAYSPDGKGITVSVKPNEDGTKVLLSVLDRGCGIAQKEQSRIFERFYRGGNQNGHSEEGIGLGLAIVKHVALTHHGSASVWSAPGQGSTFTLGLPVARN
MGSDKIHHHHHHMFTRRFIPVVQSTKQNIGKYVRKDARFTLLTYNMLSPSYMWPQVYTYVAEPYKNWSYRHRLLEKELLNTFKADIMCLQEMTARDYEDYWHDSIGVDVNYGSKFISKTPPKYWKKPVKDMDGVSIFYNLAKFDFISSSGIYLNQLLNVFNQRELKYLYNKKVTLTDGASNVIGEDSLLDVLKGKNQVCLFVSLRHKETGTIFVVLNTHLYWKYDEVKLTQCMIIMRELSKIIKQLLPGDVKGQERVKILFTGDLNSTRDSLVVNFLQGQIVSHGDLNLINPMRPYLDRCVYDDIPKDYFVHTCYSGKLKGIFDYVWYHDSDFLLTKILTGNEVSDELLASNQLGLPNENHPSDHIPLLTEFKIL
MGSDKIHHHHHHMFTVMDIVQPDTVEEAYSILNKRKTNQVIGGSAFLRMGKKRIGTGIELSKLNLDYIKEYEDYVEIGSMTTFRTLETSSIIKNNFGRIIEDSVKNIIGVQFRNVVTVGATVFSKYGFSDLIVALLSLDTEVELYNIGRISLEEFLNRDYEKDLLIKIYIKKTNKNASYKSLRNAKSDYPILNVSVSKHMEQFKLCVGARPQKATIAKQASEFLSNNEINEINIDKAVEIASEELTFGSNMRASREYRKAMSKVLLKRAIMEVI
MGSDKIHHHHHHMFVGASEFRLTDAEHGLSFPVLVMYPTRQLPSRHAFGPYLMDVSMNAPIAGGQHPLILVSHGSGGSHLLYRTMTAHLAQHGYVVAMIEHPGNNRVDNQFMGKVENLQYRPRHLRLTADALYGDAVLGPHLQAGRIGVIGHSMGGYTALALAGGTPWYPPEAFQPDYRGPAPAVVDVEHDDRVKALVLLAPATVWFMPEHALEDVDVPILMLSAEHDPYTPAWHGEIVRKGVRDPANVTSRCVKNAGHFSFLSPFPPKIKQGGALPTIDPEGFDRERFHEQLKQEILAYFNLRLKTAPA
MGSDKIHHHHHHMFVQHDERSRPCCCSFISFKYLKTTTPQEEEMPKKPKPNNFHDELNFARFGVISMHSRIDREVTSWKSEFTINGRTFRIEAITPEGRPHGIDTDTLVAVETLFVASSCPEDNWVHTTAYEMRELMGLGNNGDSYHRLRQSLRRLYLTSVIVGRKTSVANASGRVTWDNVGVRFLEGIRYRDAEDANALSMLDGEATLSIRLGEQLAASIRNGVSQVLDGQLLHQLEQPPARALYRTLQAHRRQDDGTLLDQLRVPLAEWRLATGLTTERTDLVRRALEAAHDELLANRYLEAVSIEGRGKKAYASYTFAERGAADPALVVLLRHAGVTVSRATALAAQHPERVEEACGFWKAAGPARAARYVIPAAWLRTSSRIQANISFRKSSSNLAVNVSSGCRS
MGSDKIHHHHHHMFWFKNALIYRLTKSLDWSVENLQSQLQQCAYSPCQQSDMSRFGWSNPLRESESLSFCVGKQLLLVAHKEEKILPAQVIKRELEERIEQLEQKENRKLKKIEKQALKDDIVATLLPRAFSKNQHTALWIDTENNLIYIDTASTKRAEDCLALLRKSLGSLPVVPLAFANEPSLVMTNWVKENSPQWLTVLEEAELKGSQDQAVIRCKQQVLDSEEMIGLLNSGKYITNLSLNWEEHLSFTLNEDASLKRLKFADQIREQNDDISKEDFAQRFDADFVLMTGILAKLTENLLDEFGGEKERL
MGSDKIHHHHHHMFWKKDPTVSWERKNINDIDFSRFNVAIIGGTGGLGRAISRELAQRNARVTVVGQTFRDEDLKDKINFVKADLSLVSECKRISHSDEIPYEELTHLIFTTGIFASRQRQATSEGLEKDMAVSYLSRYIIFHDVAKRLGISRTKKDDLPKVFIAGFPGNGQVGDPDDLNSDEKKYSAYATHMNTVAANESLVIDAKDRYTNIDTFGLNPGLIKTNIRNNLLGSDTYLSRITEWIISWTCQSAETYAKTICTLIASPAIESRSGTMFSNKGDAILPSPGLTKDVVEKFMENSELLVEKALRNQSPFTSSNE
MGSDKIHHHHHHMFYYNQYVRAQSLDEAYELYQKKPNFVLGGMLWLKMKNKTLGTAIDLCDLGLDQIDEDENEFRIGAYATLRQIETHEALNAYTHGAIAESVRHIVGVQFRNVATVGGSIWGRFGFSDVMTIFRALGAKVQLHKAGIMDLDEFAALPRTTRDVLVSVIVPKNAKGVVYLSQRNQSTDFPVLTCAVANRSGRYVAVIGASPYMAEPVWDEDGILDGIADAKTDGNAALTDNSETNAKIDKFAEYVAEHIRFGSNIRAGAEYREIICRVLTRRAVTQSLDICDDIKHEH
MGSDKIHHHHHHMGDAGGAGGNNMNIKQAKNEVKNTVKAYLSKDAHGEYVIPQIRQRPMLLIGPPGVGKTQIMEQIARECKIGLVAYTITHHTRQSAVGLPFIKEREYDGKSYSVTEYTMSEIIASVYEKMEATGLKEGILFIDEINCVSETLAPTMLQFLQCKTFGNQAVPKGWVIVAAGNPPEYNKSVRDFDMVTLDRVRYISIEADYQVWKEYARDVHIHDALLSYLELHPNNFYRVETDVDGMNFVTARGWEDLSSLLKVYEAGELAVTEEVIGEFIHHPDIAEDVYAYLEIYRKYNEDYGISDILSGNVKKSVYKRVFDADFDERITVVNLLLSGLTVVFSDVARERKMVQLWYEFLKEYRKSQRSTEEQHALYNSAVEQFSKNMEILKESSLILPKEYYIRQDVLKHIKGDFDTVMDDFTEESEKLSTMEDAAGEKLNHAFDFVEDVFSDDQEMLVFVTELTITPEISSFLAENECEKFDIYNEKLMVGSNRTRLLKELER
MGSDKIHHHHHHMGEGLSVIGFDADDTLWQNESFFRLTEDKFAELLADFAEGAHLRERLLALETKNIGHYGFGIKGFMLSMIETAVEVTEGRVDGSVISKILEMGQDMLRHPIHLLPHVEETLGTLSDRYPLVLITKGDLLHQEQKLAASGLGDLFAGVEIVSAKLPSTYDTAFSVHGVGPKHAMMVGNSMKSDIRPALDAGAFAVYVPHGLTWELEHTETPVGHPRYHELPDLGGLIDLIETVTD
MGSDKIHHHHHHMGGLGARHLYGSALGEHLVFKGGTSLSKAYQVIQRFSEDVDLTYDIRAIAPDLVGDDGEALPETRSEEKRWSSEVRKRLPNWVEGSVQPIIADALAAEALAAAIRVEGEKLFIDYAAATAGSGYVAPSVILEFGARSTGEPASLRDIACDASGLIEGVTFPTARPRVMHAERTFWEKATAIHVFCLQERLRGDRFARHWHDVARLDETGFTPSAFADRDLANAVARHKTMFFAEKAPDRTPIDYAAAVNGGLRLVPAGDGLKALEEDYARMVDDGLLLEDAEPFEALMARCADIAERANYIRE
